The text below walks through data of patent US20160237157A1 (published 2016).

Usually Kd stands for a measure of binding affinity in units of concentration. A high value points to a looser complex.

What all share (test): SPR
Background: Surface plasmon resonance follows binding to a sensor surface in real time, without labels.

Test [1] addresses human FGFR4-Fc chimeric protein (UniProt P22455 22-369).
Test [2] has as its target T1, mouse FGFR4-Fc chimeric protein (mouse, UniProt Q03142 17-366).
T1 chain: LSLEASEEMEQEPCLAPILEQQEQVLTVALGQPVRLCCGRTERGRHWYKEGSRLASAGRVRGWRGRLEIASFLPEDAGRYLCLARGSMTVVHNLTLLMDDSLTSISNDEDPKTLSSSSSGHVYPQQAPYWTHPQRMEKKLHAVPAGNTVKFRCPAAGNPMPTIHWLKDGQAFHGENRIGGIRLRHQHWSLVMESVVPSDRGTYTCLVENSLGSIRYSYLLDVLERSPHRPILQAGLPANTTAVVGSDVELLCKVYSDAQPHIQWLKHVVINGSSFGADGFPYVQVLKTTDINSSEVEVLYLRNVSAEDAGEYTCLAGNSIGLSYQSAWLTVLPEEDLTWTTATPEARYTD

The target of the next test is Cynomolgus FGFR4 (cynomolgus monkey).

Sequence of human FGFR4-Fc chimeric protein (P22455 22-369, change not shown): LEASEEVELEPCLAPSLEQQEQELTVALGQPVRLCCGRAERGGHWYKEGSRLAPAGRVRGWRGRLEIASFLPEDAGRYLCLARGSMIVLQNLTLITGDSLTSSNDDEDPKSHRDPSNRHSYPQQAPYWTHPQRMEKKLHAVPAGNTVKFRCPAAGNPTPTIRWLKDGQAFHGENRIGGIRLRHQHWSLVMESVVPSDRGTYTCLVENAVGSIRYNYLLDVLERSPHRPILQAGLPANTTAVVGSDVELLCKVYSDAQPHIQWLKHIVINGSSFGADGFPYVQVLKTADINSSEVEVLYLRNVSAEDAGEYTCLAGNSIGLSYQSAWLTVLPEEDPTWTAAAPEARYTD

B1: chimeric LD1 (chLD1) (antibody, V domains shown)
VH: EVQLQQPGAVLVRPGTSVKLSCKASGYTFTNHWMNWVKQRPGQGLEWIGMIHPSDSETTLDQKFKDKATLTVDKSSSTAYMQLNRPTSEDSAVYYCTRGDISLFDYWGQGTTVTVSS
VL: DIQMTQTTSSLSASLGDRVTITCRTSQDISNFLNWYQQKPDGTFKILISYTSRLHSGVPSRFSGSGSGTDYSLTISTLEQEDFATYFCQQGNALPYTFGGGTKLEIE
As to B1, the Kd in test [1] and in test [2] was 0.7 nM throughout.

B2: LD1 (antibody, V domains shown)
VH: B1 VH
VL: B1 VL
B2 showed a Kd in the test with Cynomolgus FGFR4 of 0.8 nM.
